Results as given in article PMC4422707.
Several values for one entry are separate records, joined by “and”; a condition that tells them apart may be missing. Equal values may be shown once.

Target: His-SUMO-2B protein (FMDV non-structural 2B protein fused to SUMO) (foot-and-mouth disease virus (FMDV) serotype Asia1)
Experiment: cross-linking

## His-SUMO-2B protein (FMDV non-structural 2B protein fused to SUMO) (natural protein)
  stoichiometry N: 2 and 4 and 6
